From PMC5240623, “Methylation specific targeting of a chromatin remodeling complex from sponges to humans” come the findings set out here.

Data set [1] concerns the target T1, HsMBD2 MBD (Homo sapiens, UniProt Q9UBB5 150-214). Description: SPR; steady state; Rmax 6.0; SPR: 10 mM HEPES pH 7.4, 50 mM NaCl, 3 mM MgCl2, 0.1 mM EDTA, 1 mM DTT, 0.05% polysorbate 20, temperature not stated; NMR conditions not in material. To be noted: protein: recombinant; blunt. (In SPR one partner is held on a chip, and binding of the other changes the refractive index at the surface.)

For data set [2], the target named is T1, HsMBD2 MBD. Description: SPR; steady state; Rmax 0.93; SPR: 10 mM HEPES pH 7.4, 50 mM NaCl, 3 mM MgCl2, 0.1 mM EDTA, 1 mM DTT, 0.05% polysorbate 20, temperature not stated; NMR conditions not in material. Particulars: protein: recombinant; blunt.

The Kd is the equilibrium constant for the complex coming apart.

T1 sequence (Q9UBB5 150-214): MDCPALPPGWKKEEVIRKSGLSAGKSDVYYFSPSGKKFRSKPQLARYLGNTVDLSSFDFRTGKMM

B1: CpG(x3) 17 bp, 3'-biotin (dsDNA)
DNA 1: GAGGCGCTCGGCGGCAG
DNA 2: CTGCCGCCGAGCGCCTC
Turning to B1, the Kd with HsMBD2 MBD [1] amounted to 81.7 µM.

B2: mCpG 17 bp, 3'-biotin (dsDNA)
DNA 1: GAGGCGCTCGGCGGCAG
DNA 2: CTGCCGCCGAGCGCCTC
modifications: 5-methyl-C at C9 of strand 1 and C8 of strand 2 (central CpG); two other CpGs unmethylated
Take B2: in the data set with HsMBD2 MBD [2], the Kd came to 0.33 µM.
